Reference: patent US20050089937A1 (H LUNDBECK A S, published 2005)
Non-standard residues stand in square brackets, D forms with d. No end group written: not given here. *: point of attachment. NMeF = CN[C@@H](Cc1ccccc1)C(=O)O; 125I = [125I]*

Legend:
[1] = biological target: rat spinal cord membrane receptor; assay: competition with [125I]D-Tyr-NPFF, rat spinal cord membranes
[2] = biological target: rat neuropeptide FF receptor (NPFF1) (rat) (UniProt Q9EP86); assay: competition with [125I]D-Tyr-NPFF, membranes of COS-7 cells with rat NPFF1
[3] = biological target: T1, rat neuropeptide FF receptor (NPFF1) (rat, UniProt Q9EP86 1-432); assay: as above
From the text: (§1) Cos-7 cells transiently expressing the gene encoding the novel rat NPFF1 receptor were used for pharmacological evaluation.

[4] = biological target: T2, rat neuropeptide FF receptor (NPFF2) (rat, UniProt Q9EQD2 1-417); assay: competition with [125I]D-Tyr-NPFF, cloned receptor (head: HEK-293; text: Cos-7)
T2 construct: Full-length cloned receptor; Also the native receptor in rat brain sections (autoradiography); also called rat NPFF2
T2 sequence (Q9EQD2 whole entry): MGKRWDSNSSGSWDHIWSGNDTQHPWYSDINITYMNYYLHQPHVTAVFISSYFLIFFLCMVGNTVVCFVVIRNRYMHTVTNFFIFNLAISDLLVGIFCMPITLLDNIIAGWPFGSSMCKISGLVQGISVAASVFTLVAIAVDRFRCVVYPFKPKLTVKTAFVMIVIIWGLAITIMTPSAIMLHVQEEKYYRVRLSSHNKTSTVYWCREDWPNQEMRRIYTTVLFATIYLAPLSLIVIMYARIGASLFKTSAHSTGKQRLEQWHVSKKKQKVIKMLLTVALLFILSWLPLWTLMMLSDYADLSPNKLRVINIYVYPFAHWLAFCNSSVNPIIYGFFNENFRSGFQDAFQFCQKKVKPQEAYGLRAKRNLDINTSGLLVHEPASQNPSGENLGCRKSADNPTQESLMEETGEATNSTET
From the text: (§2) Additional pharmacological evaluation was done using 293 human embryonic kidney cells (HEK-293 cells) transiently expressing the genes encoding the human NPFF1, NPFF2, and rat NPFF1 receptors, as well as Cos-7 cells expressing the rat NPFF2 receptors.

[5] = biological target: T1, rat neuropeptide FF receptor (NPFF1); assay: cell-based or functional assay
[6] = biological target: T3, human neuropeptide FF receptor (NPFF1) (human, UniProt Q9GZQ6 1-430); assay: competition with [125I]D-Tyr-NPFF, HEK-293 cells with the cloned receptor
T3 construct: also called human NPFF1; hNPFF1
T3 sequence (Q9GZQ6 whole entry): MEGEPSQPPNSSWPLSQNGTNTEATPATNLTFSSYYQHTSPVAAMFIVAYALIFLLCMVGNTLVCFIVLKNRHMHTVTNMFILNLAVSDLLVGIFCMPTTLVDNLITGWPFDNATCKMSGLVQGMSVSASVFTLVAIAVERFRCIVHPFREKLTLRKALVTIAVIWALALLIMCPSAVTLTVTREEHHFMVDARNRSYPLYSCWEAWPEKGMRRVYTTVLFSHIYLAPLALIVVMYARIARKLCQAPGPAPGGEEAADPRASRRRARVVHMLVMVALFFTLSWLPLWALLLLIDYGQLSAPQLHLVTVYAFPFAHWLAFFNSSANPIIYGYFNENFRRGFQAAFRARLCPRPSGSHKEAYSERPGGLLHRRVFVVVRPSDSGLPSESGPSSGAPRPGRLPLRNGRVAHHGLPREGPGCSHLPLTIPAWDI
From the text: as §2

[7] = biological target: T1, rat neuropeptide FF receptor (NPFF1); assay: as above
From the text: as §2

[8] = biological target: T4, human NPFF2b (hNPFF2) receptor (human, UniProt Q9Y5X5 103-522); assay: as above
T4 construct: also called NPFF-like; hNPFF-like
T4 sequence (Q9Y5X5 103-522): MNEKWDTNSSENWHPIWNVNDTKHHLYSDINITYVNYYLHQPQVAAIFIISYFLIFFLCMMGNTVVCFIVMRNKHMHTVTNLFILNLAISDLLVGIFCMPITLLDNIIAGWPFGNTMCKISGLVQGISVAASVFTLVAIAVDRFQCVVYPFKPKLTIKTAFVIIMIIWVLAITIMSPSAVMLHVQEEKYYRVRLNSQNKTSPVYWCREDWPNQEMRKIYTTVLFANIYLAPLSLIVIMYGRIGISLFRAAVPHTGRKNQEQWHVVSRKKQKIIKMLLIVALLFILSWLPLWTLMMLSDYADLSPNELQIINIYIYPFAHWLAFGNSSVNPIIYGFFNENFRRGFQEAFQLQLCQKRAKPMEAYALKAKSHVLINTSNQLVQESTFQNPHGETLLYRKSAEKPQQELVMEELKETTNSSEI
From the text: as §2

[9] = biological target: T2, rat neuropeptide FF receptor (NPFF2); assay: competition with [125I]D-Tyr-NPFF; rat NPFF2 against rat NPFF1
From the text: as §2

[10] = biological target: T4, human NPFF2b (hNPFF2) receptor; assay: competition with [125I]D-Tyr-NPFF; human NPFF2 against human NPFF1
From the text: as §2

[11] = biological target: T3, human neuropeptide FF receptor (NPFF1); assay: cell-based or functional assay
[12] = biological target: T4, human NPFF2b (hNPFF2) receptor; assay: cell-based or functional assay
[13] = biological target: T1, rat neuropeptide FF receptor (NPFF1); assay: radioligand saturation binding, membranes of Cos-7 cells transiently expressing rat NPFF1
From the text: as §1

[14] = biological target: T2, rat neuropeptide FF receptor (NPFF2); assay: radioligand binding to cloned rat NPFF2, as told in the discussion
[15] = biological target: T3, human neuropeptide FF receptor (NPFF1); assay: radioligand saturation binding, transiently transfected HEK-293 cells
[16] = biological target: T1, rat neuropeptide FF receptor (NPFF1); assay: as above
[17] = biological target: T4, human NPFF2b (hNPFF2) receptor; assay: as above
[18] = biological target: T2, rat neuropeptide FF receptor (NPFF2); assay: radioligand saturation binding, Cos-7 cells expressing rat NPFF2
From the text: as §2

[19] = biological target: T1, rat neuropeptide FF receptor (NPFF1); assay: cell-based or functional assay; remark: listed apart in the source
[20] = biological target: T2, rat neuropeptide FF receptor (NPFF2); assay: competition binding, HEK-293 cells with the cloned receptor
[21] = biological target: T5, rat neuropeptide FF receptor (NPFF1) (rat), Q9EP86; assay: competition with [125I]D-Tyr-NPFF, membranes of COS-7 cells with rat NPFF1
T5 chain: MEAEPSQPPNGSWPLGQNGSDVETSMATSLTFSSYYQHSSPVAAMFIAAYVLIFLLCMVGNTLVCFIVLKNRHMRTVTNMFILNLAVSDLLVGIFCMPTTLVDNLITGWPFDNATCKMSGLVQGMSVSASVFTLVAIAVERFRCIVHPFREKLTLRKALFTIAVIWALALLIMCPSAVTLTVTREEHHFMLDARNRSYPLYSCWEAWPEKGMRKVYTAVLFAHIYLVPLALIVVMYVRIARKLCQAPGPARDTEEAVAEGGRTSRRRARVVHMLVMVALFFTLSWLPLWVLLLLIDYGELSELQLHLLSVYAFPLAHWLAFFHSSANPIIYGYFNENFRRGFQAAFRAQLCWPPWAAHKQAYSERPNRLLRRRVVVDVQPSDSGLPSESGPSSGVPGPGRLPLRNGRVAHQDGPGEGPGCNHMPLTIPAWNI

Neuropeptide FF (NPFF) was tested, and the pKi [1] was 9.05.

“Dynorphin A1-13 (from UniProt P01213 207-219) (peptide)” showed a pKi [1] of 5.7.

(2DME)Y8Fa (peptide) was tested, and the pKi [1] was 9.57 and the pKi [2] was 9.2.

(3D)Y8Fa (peptide) was tested, and the pKi [1] was 9.12 and the pKi [2] was 8.62.

For desamino-nor-Y8Ra (peptide), the pKi [1] was 7.51 and the pKi [3] was 7.27.

CGRP (peptide) gave a pKi [1] of 5 and a pKi [3] of 5.

With (2D)Y8Fa (peptide) the pKi [1] was 9.21 and the pKi [2] was 8.33.

In the case of Neuropeptide F, the pKi [1] is reported as 8.1 and the pKi [3] is reported as 6.11.

B1: Y8Fa (peptide)
peptide: YLFQPQRF-NH2
notes: also called Y8Famide; Y-8-F-amide
In the case of B1, the pKi [1] is reported as 9.19 and the pKi [3] is reported as 8.38.

B2: rat A-18-F-amide (peptide)
peptide: AGEGLSSPFWSLAAPQRF-NH2
notes: also called NPAF
B2 was tested, and the pKi [4] was 8.2, the pKi [1] was 9 and the “EC50, extracellular acidification rate (microphysiometry), CHO cells with NPFF1 alone” value [5] was 150 nM. It also gave a pKi [3] of 7.5, a pKi [6] of 7.2 and a pKi [7] of 7.5. For the same molecule, the pKi [8] was 8.9.

B3: [Y^9]A18Fa (peptide)
peptide: AGEGLSSPYWSLAAPQRF-NH2
notes: also called [Y^9]A18Famide; [tyr^9]A-18-F-amide
Molecule B3 has a pKi [1] of 8.5 and a pKi [3] of 7.56.

B4: AF-2 (peptide)
peptide: H-KHQYLRF-NH2
notes: Printed as H-Lys-His-Gln-Tyr-Leu-Arg-Phe-NH2
B4 gave a pKi [1] of 7.96 and a pKi [3] of 7.02.

B5: galanin (peptide, UniProt P22466 33-62, looked up, species assumed)
Galanin: GWTLNSAGYLLGPHAVGNHRSFSDKNGLTS
modifications: Galanin
B5 was tested, and the pKi [1] was 5 and the pKi [3] was 5.

B6: Schisto(FLRFNH2) (peptide)
peptide: PDVDHVFLRF-NH2
notes: also called SchistFLRF
With B6 the pKi [1] was 6.39 and the pKi [3] was 5.96.

B7: D-Met-FMRF amide (peptide)
peptide: FMRF
modifications: D-Met in place of L-Met, C-terminal amide
notes: also called the D-Met analog
In the case of B7, the pKi [4] is reported as 6.2, the pKi [6] is reported as 6.6 and the pKi [7] is reported as 6.2. It also gave a pKi [8] of 6.4.

B8: AF-1 (peptide)
peptide: H-KNQFIRF-NH2
notes: Printed as H2N-Lys-Asn-Gln-Phe-Ile-Arg-Phe-NH2; also called FMRF-like peptide
With B8 the pKi [1] was 7.56 and the pKi [3] was 6.63.

B9: Met5-Arg6-Phe7-Enk-NH2 (peptide)
peptide: YGGFMRF-NH2
notes: also called Met-Enk-NH2; Met^5, Arg^6, Phe^7-NH2 enkephalinamide
Work on B9 yielded a pKi [1] of 8.4 and a pKi [3] of 7.35.

B10: Met5-Arg6-Phe7-Enk-OH (peptide)
peptide: YGGFMRF-OH
B10 showed a pKi [1] of 5 and a pKi [3] of 5.

B11: CCK8 (peptide, UniProt P06307 96-103, looked up, species assumed)
Cholecystokinin-8: DYMGWMDF
modifications: ends and bridges not checked
B11 showed a pKi [1] of 5 and a pKi [3] of 5.

B12: Frog pancreatic polypeptide (frog PP) (Rana Temporaria) (peptide)
peptide: APSEPHHPGDQATQDQLAQYYSDLYQYITFVTRPRF
modifications: not fully specified; ends and bridges not checked
notes: also called fPP
With B12 the pKi [4] was 7.3, the “fold greater affinity than for the NPFF1 receptor” value [9] was 31 fold and the pKi [1] was 9.12. The “fold greater affinity than for the NPFF1 receptor” value [10] was 77 fold, the “% of NPPF Response, intracellular calcium mobilization” value [11] was 0 % of NPPF Response and the “pEC50, intracellular calcium mobilization” value [11] was less than 5. For the same molecule, the “% of NPPF Response, intracellular calcium mobilization” value [12] was 78 % of NPPF Response, the “pEC50, intracellular calcium mobilization” value [12] was 6.7 and the pKi [3] was 5.5. The pKi [6] was 5.9, the pKi [7] was 5.4 and the pKi [8] was 7.4.

B13: nocistatin (peptide, UniProt Q13519 98-127, looked up, species assumed)
Nocistatin: MPRVRSLFQEQEEPEPGMEEAGEMEQKQLQ
modifications: Nocistatin
B13 showed a pKi [1] of 5 and a pKi [3] of 5.

B14: (D-Tyr^1-(NMe)Phe^3)NPFF (peptide)
peptide: [dY]L[NMeF]QPQRF-NH2
modifications: N-terminus assumed
SMILES: CC(C)C[C@H](NC(=O)[C@H](N)Cc1ccc(O)cc1)C(=O)N(C)[C@@H](Cc1ccccc1)C(=O)N[C@@H](CCC(N)=O)C(=O)N1CCC[C@H]1C(=O)N[C@@H](CCC(N)=O)C(=O)N[C@@H](CCCNC(=N)N)C(=O)N[C@@H](Cc1ccccc1)C(N)=O
notes: also called D-Tyr-NPFF; (1DMe)Y8Fa
Work on B14 yielded a pKi [4] of 8.7, a pKi [1] of 9.72 and a pKi [3] of 8.55. For the same molecule, the pKi [6] was 8.1, the pKi [7] was 8.8 and the pKi [8] was 8.5.

B15: FMRF amide (peptide)
peptide: FMRF-NH2
Molecule B15 has a pKi [4] of 8, a pKi [1] of 8.49 and a pKi [3] of 8.48. For the same molecule, the pKi [6] was 9.1, the pKi [7] was 8.7 and the pKi [8] was 8.4.

B16: FFRF (peptide)
peptide: FFRF
modifications: ends and bridges not checked
In the case of B16, the pKi [1] is reported as 8.98 and the pKi [3] is reported as 8.

B17: PMRFa (peptide)
peptide: PMRF-NH2
For B17, the pKi [1] was 9.37 and the pKi [3] was 8.55.

B18: PQRF-amide (peptide)
peptide: PQRF-NH2
notes: C-terminal tetrapeptide of NPFF; also called PGRF-amide [sic]
For B18, the pKi [4] was 7.6, the “% of NPPF Response, intracellular calcium mobilization” value [11] was 93 % of NPPF Response and the “pEC50, intracellular calcium mobilization” value [11] was 6.7. For the same molecule, the “% of NPPF Response, intracellular calcium mobilization” value [12] was 94 % of NPPF Response, the “pEC50, intracellular calcium mobilization” value [12] was 7 and the pKi [3] was 8.18. For the same molecule, the pKi [6] was 7.4, the pKi [7] was 7.6 and the pKi [8] was 7.6.

B19: FTRF (peptide)
peptide: FTRF
modifications: ends and bridges not checked
B19 gave a pKi [1] of 8.16 and a pKi [3] of 7.87.

B20: hPP (peptide, UniProt P01298 30-65, looked up)
peptide: APLEPVYPGDNATPEQMAQYAADLRRYINMLTRPRY
Work on B20 yielded a pKi [1] of 5 and a pKi [3] of 5.

B21: [^125I][D-Tyr^1-(NMe)Phe^3]NPFF (peptide)
peptide: [dY](125I)L[NMeF]QPQRF-NH2
Molecule B21 has a Kd [13] of 0.335 nM, a Kd [14] of 0.22 nM and a Kd [15] of 0.46 nM. The Kd [16] was 0.65 nM, the Kd [17] was 0.17 nM and the Kd [18] was 0.17 nM.

B22: Neuropeptide FF (NPFF) (peptide)
peptide: FLFQPQRF-NH2
notes: bought from Bachem; also called F-8-Fa; F8Famide
With B22 the “EC50, functional activity in COS-7 cells” value [19] was 9.3 nM, the “EC50, extracellular acidification rate (microphysiometry), CHO cells with NPFF1 alone” value [5] was 19.3 nM and the “EC50, extracellular acidification rate (microphysiometry), CHO cells with NPFF1 and the Gz/Gq chimera” value [5] was 27.7 nM. The “EC50, total inositol phosphate release, Cos-7 cells with NPFF1” value [5] was 23 nM and the pKi [20] was 8.2.

B23: Tyr-MIF-1 (peptide)
chain: YPLG
modifications: not checked
For B23, the pKi [1] was 5 and the pKi [21] was 5.
